Reference: US11136597B2, “Compositions for enhancing targeted gene editing and methods of use thereof” (Yale University, priority 2016, dated 2021)

Columns and labels:
F508del CFTR [1] = assay: MQAE assay measuring chloride flux in CFBE cells; type: cell-based; conditions: NPs containing γtcPNAs with 4 γ residues in the Hoogsteen domain, versus unmodified PNA
From the text: (§1) FIG. 7A is a bar graph showing the results of a MQAE (N-(Ethoxycarbonylmethyl)-6-Methoxyquinolinium Bromide) assay (delta(AFU)/(delta(Time (sec)) measuring chloride flux for negative control CFBE cells; CFBE cells treated with blank nanoparticles, PNA2: lys-lys-lys-TJTJJTTT-OOO-TTTCCTCTATGGGTAAG-lys-lys-lys (SEQ ID NO:93)-loaded nanoparticles, PNA2 (SEQ ID NO:93)-loaded nanoparticles with an MPG peptide, γPNA2 lys-lys-lys-TJTJJTTT-OOO-TTTCCTCTATGGGTAAG-lys-lys-lys (SEQ ID NO:69)-loaded nanoparticles; and untreated positive control wildtype 16HBE14o-cells. FIG. 7B is a dot pot showing nasal potential difference (NPD) (pretreatment, after treatment with γPNA2 (SEQ ID NO:69)-loaded nanoparticles, and after treatment with blank nanoparticles) measured using a non-invasive assay used to detect chloride potential differences in vivo.
(§2) A substantial increase in gene editing in F508del CFTR using γtcPNAs with just partial γ substitution and only in the Hoogsteen domain of CF PNA2.

F508del CFTR [2] = assay: Nasal potential difference (NPD) in CF mice after intranasal delivery; type: in vivo, mouse; conditions: intranasal delivery of NPs
From the text: as §1, §2

[3] = tested on: human β-globin gene with the thalassemia-associated IVS2-654 mutation; assay: Disease phenotype in IVS2-654 β-thalassemic mice (blood smears, CBC, reticulocytes, spleen); type: in vivo, mouse; conditions: day 36 after last treatment, four treatments at two-day intervals, SCF i.p., NPs i.v.
Description: The IVS2-654 β-thalassemic mice were also obtained from Ryszard Kole, University of North Carolina (Svasti, et al., Proc Natl Acad Sci USA, 106:1205-1210 (2009)). For treatment of the mice, where indicated SCF (15.6 ug per mouse, Recombinant Mouse SCF, carrier-free, R&D catalog #455-mc-050/CF) was injected intraperitoneally 3 hrs prior to treatment with 4 mg of NPs in 150 μl PBS delivered via retro-orbital intravenous injection. Each mouse received 4 treatments given at 48 hr intervals. Mice were anesthetized with isoflurane followed by retro-orbital bleeding (˜100 μL) using ethylenediaminetetraacetic acid-treated glass capillary tubes. The blood was evacuated into tubes with 5 μL of 0.5 M EDTA acid in heparinized coated tubes. Complete blood counts were performed using a Hemavet 950FS (Drew Scientific, Oxford, Conn.) according to the manufacturer's protocol. Slides containing blood smears were stained with Wright and Giemsa stain for microscopy. Methylene blue staining was used for reticulocyte counts. Spleen images and weights were taken after selected mice were sacrificed on day 36 after the last treatment. Harvested spleens were fixed in 10% neutral buffered formalin and processed by Yale Pathology Tissue Services for H&E, CD61 and E cadherin staining. […]

[4] = tested on: homology-dependent repair (HDR); assay: Luciferase reporter gene assay for homology-dependent repair (HDR) in CD117+ cells; type: cell-based, mouse
Description: An inactivating I-Sce1 site was cloned 56 amino acids into the firefly luciferase open reading frame under the control of a CMV promoter. The reporter construct also contains a promoterless luciferase gene used as a template for homologous recombination. A double-strand break in the luciferase reporter is created by in vitro digestion with the I-Sce I restriction enzyme (NEB #R0694L). Plasmid DNA was digested with I-Sce 1 for 1 hour at 37° C. at a ratio of 10 units enzyme to 1 μg DNA and then the enzyme was inactivated at 65° C. for 20 minutes. The linearization of the plasmid was confirmed for each digestion via gel electrophoresis and the linear plasmid was purified using the Qiagen Qiaquick spin columns. After separation CD117+ and CD117-cells from bone marrow of β-globin/GFP transgenic mice, cells were transfected using the Lonza 2b Nucleofector Device. 5×10^5 cells were transfected with 1 μg of either the luciferase reporter vector or a positive control firefly luciferase expression vector, along with 50 ng of a renilla luciferase expression plasmid as a transfection efficiency control. All transfections were performed in triplicate. After transfection the cells were plated at a density of 5×10^5 cells/ml in 12-well plates. After 24 hours incubation post transfection, luciferase activity was measured using the Promega Dual Luciferase Assay Kit. In each sample firefly luciferase activity was normalized to the renilla luciferase transfection control. Reporter reactivation was calculated as a ratio of normalized firefly luciferase activity in the cells transfected with the reporter plasmid to the positive control.
To test whether the above increases in DNA repair gene expression could be correlated with functional differences in DNA repair, a luciferase-based assay was used to quantify repair of DNA double-strand breaks (DSBs) by HDR. In this assay, repair of a DSB in a reporter plasmid via intramolecular homologous recombination creates (“reactivates”) a functional luciferase gene (FIG. 2H), and so the assay provides a measure of HDR capacity (FIG. 2J).

[5] = tested on: DNA repair genes (Rad51, BRCA2); assay: Gene expression profiling of SCF-treated versus untreated CD117+ cells; type: cell-based, mouse
[6] = tested on: CD117+ cells from β-globin/GFP transgenic mice; assay: Ex vivo gene editing in pre-sorted CD117+ cells with or without SCF or c-Kit pathway kinase inhibitors; type: cell-based, mouse
Description: For CD117+ cell experiments, Iscove's Modified Dulbecco's Media (IMDM) media containing insulin (10 ng/ml), FCS (10%) and erythropoietin (1 U/ml) was used to culture CD117+ cells after isolation using magnetic separation. Where indicated, 3 μg/ml of SCF (Recombinant murine SCF, catalog #250-03, PeproTech, Rocky Hill, N.J.;) was added prior to nanoparticle treatment. 2 mg/ml of NPs were used to treat 50,000-100,000 CD117+ cells in triplicate for 48 hrs in the above media, followed by flow cytometry analyses as above. Inhibitors were used at concentrations of 200 nM (dasatinib), 1.0 μM (MEK162) and 3.0 μM (BKM120). Dasatanib was obtained from Cayman Chemical (Ann Arbor, Mich.; item #11498) and dissolved according to manufacturer's protocol. MEK162 and BKM120 were obtained from Dr. Harriet Kluger, Yale University.
BD Bioscience kit catalog #558451 (BDImag™ Hematopoietic Progenitor Stem Cell Enrichment Set—DM) was used to isolate CD117 cells. Enrichment for CD117 was confirmed by flow cytometry. CD117+ enriched cells were labeled with CD117-APC (BD Pharmingen™ catalog #558451) antibody. Cells were co-labelled with control IgG antibody (BD Pharmingen™ catalog #555746) for gating purposes. To quantify GFP expression, after CD117 co-labelling, flow cytometry was performed using FACScaliburS by resuspending cells in PBS/1% FBS where green fluorescent cells are measured in the Fl1 channel and APC stained cells are in the Fl4 channel Antibodies for other markers were Ter119 (BD Pharmingen™ catalog #561033) and CD45 APC (BD Pharmingen™ catalog #561018).
To explore the mechanism of the increased gene editing in CD117+ cells, the requirement of c-Kit-dependent signaling for elevated gene correction or whether CD117 simply serves as a marker for the increased susceptibility to gene editing was distinguished. To do this, γtcPNA4/donor DNA NP-mediated gene editing was assayed in pre-sorted CD117+ cells in the presence or absence of selected kinase inhibitors (FIG. 2D). Dasatinib, which inhibits the c-Kit kinase in addition to the BCR/Abl and Src kinases, reduced the gene editing from 7% to 2.0%.

Question: “lys-lys-lys-TJTJJTTT-OOO-TTTCCTCTATGGGTAAG-lys-lys-lys (lysine caps, linker, γ residues, in nanoparticles, as printed in the source, key not given here) [γPNA2, CF PNA2 with 4 γ residues in the Hoogsteen domain, delivered in nanoparticles]” was tested. Which “increase in activity for CFTR gene correction (MQAE assay)” value (F508del CFTR [1]) did it give?
Answer: Its value is “more than 50%”.

Question: What about the “activity in vivo by NPD measurements” value (F508del CFTR [2]) of the same molecule?
Answer: Its value is “substantial increase in activity”.

B1: SCF: recombinant murine stem cell factor, the ligand for c-Kit (protein)
chain: MKEICGNPVTDNVKDITKLVANLPNDYMITLNYVAGMDVLPSHCWLRDMVIQLSLSLTTLLDKFSNISEGLSNYSIIDKLGKIVDDLVLCMEENAPKNIKESPKRPETRSFTPEEFFSIFNRSIDAFKDFMVASDTSDCVLSSTLGPEKDSRVSVTKPFMLPPVA
Question: B1 was tested. Which “RBC morphology in blood smears” value [3] did it give?
Answer: The value was “not”.

Question: And the “HDR repair activity (luciferase reactivation) in CD117+ cells” value ([4]; CD117+ cells)?
Answer: Its value is “further boosted”.

Question: And the “fold increase in HDR” value ([4]; CD117+ cells treated with SCF)?
Answer: Its value is 2 fold.

Question: And the “DNA repair gene expression” value [5]?
Answer: The value was “additional up-regulation of numerous DNA repair genes”.

Question: And the “change of gene editing frequency on SCF treatment” value ([6]; CD117+ cells)?
Answer: Its value is “almost doubles the frequency”.

Question: And the “gene editing frequency in CD117+ cells treated with SCF” value ([6]; γtcPNA4/donor DNA NPs, 3 μg/ml SCF added prior to nanoparticle treatment)?
Answer: The value was ~15%.
